{
  "source": "patent EP0554446B1",
  "key": {"[1]": {"target": "HIV-1 MN gp120 (HIV-1 MN) (UniProt P05877)", "sequence (P05877 32-856)": "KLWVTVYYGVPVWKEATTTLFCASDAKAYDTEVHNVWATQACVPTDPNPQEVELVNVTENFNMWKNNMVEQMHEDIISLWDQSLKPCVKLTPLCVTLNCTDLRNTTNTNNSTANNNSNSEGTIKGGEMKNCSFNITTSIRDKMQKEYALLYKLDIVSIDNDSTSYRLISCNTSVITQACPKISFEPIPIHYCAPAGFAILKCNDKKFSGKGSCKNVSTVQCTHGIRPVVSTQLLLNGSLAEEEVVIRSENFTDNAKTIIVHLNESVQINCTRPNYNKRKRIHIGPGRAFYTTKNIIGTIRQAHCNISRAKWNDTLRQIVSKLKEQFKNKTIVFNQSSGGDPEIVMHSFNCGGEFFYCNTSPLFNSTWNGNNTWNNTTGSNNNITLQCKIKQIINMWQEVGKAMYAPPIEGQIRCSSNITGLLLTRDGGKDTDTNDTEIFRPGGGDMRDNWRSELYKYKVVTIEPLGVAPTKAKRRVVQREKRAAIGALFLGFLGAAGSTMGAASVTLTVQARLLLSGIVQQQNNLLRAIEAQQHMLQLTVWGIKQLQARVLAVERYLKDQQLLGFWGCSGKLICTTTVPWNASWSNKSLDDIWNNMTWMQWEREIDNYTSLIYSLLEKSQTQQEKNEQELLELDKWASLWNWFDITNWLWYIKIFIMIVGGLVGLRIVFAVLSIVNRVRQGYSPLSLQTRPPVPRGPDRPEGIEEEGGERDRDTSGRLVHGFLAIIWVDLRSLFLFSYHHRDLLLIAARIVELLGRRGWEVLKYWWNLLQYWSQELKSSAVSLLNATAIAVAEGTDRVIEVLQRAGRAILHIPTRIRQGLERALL", "assay": "cell-based or functional assay"}, "[2]": {"target": "HIV-1 RF gp120 (HIV-1 RF) (UniProt P04579)", "sequence (P04579 32-865)": "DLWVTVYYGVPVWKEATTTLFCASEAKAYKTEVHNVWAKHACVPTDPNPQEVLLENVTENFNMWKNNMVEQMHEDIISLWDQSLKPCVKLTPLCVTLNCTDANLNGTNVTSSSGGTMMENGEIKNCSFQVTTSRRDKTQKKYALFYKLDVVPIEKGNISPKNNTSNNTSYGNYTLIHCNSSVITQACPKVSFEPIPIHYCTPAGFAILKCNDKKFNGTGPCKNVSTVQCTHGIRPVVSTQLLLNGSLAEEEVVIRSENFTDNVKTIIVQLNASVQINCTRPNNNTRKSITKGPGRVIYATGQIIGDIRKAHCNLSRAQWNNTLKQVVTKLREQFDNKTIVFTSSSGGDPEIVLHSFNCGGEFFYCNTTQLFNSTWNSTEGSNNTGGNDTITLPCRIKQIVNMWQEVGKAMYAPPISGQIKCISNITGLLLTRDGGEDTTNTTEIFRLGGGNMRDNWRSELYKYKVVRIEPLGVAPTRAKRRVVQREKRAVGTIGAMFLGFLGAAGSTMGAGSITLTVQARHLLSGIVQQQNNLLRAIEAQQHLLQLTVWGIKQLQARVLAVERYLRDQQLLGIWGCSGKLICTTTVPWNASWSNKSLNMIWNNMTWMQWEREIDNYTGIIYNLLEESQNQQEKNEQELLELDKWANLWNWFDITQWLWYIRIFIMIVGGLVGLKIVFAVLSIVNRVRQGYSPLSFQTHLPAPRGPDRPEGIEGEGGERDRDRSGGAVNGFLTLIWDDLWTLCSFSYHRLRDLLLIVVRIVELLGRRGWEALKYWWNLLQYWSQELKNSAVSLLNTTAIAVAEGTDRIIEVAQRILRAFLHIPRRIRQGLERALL", "assay": "cell-based or functional assay"}, "[3]": {"target": "HIV-1 IIIB gp120 (HIV-1 IIIB) (UniProt P03375)", "assay": "cell-based or functional assay"}, "[4]": {"target": "HIV-1 MN gp120 (HIV-1 MN) (UniProt P05877)", "assay": "ELISA of hybridoma supernatant on membranes of MN-infected against uninfected H9 cells"}, "[5]": {"target": "HIV-1 MN gp120 (HIV-1 MN) (UniProt P05877)", "assay": "RIA of hybridoma supernatant on live HIV-1MN-infected against uninfected H9 cells, 125I rabbit anti-mouse IgG"}},
  "data": [
    {"substance": "monoclonal antibody NM-01", "values": [
      {"measurement": "ID50, live MN virus, MT-2 assay", "setting": "[1]", "result": 2, "unit": "µg/mL"},
      {"measurement": "ID50, live MN virus, reverse transcriptase assay", "setting": "[1]", "result": "< 1", "unit": "µg/mL"},
      {"measurement": "ID50, syncytium formation by MN-infected H9 cells with C8166 cells", "setting": "[1]", "result": 2, "unit": "µg/mL"},
      {"measurement": "percent inhibition of syncytium formation by MN-infected cells at 25 µg antibody", "setting": "[1]", "result": 85, "unit": "%"},
      {"measurement": "ID50, live RF virus, reverse transcriptase assay", "setting": "[2]", "result": 0.05, "unit": "µg/mL"},
      {"measurement": "ID50, syncytium formation by RF-infected cells", "setting": "[2]", "result": 4, "unit": "µg/mL"},
      {"measurement": "percent inhibition of syncytium formation by RF-infected cells at 25 µg antibody", "setting": "[2]", "result": 59, "unit": "%"},
      {"measurement": "ID50, live IIIB virus, MT-2 assay", "setting": "[3]", "result": 0.1, "unit": "µg/mL"},
      {"measurement": "ID50, live IIIB virus, reverse transcriptase assay", "setting": "[3]", "result": 0.1, "unit": "µg/mL"},
      {"measurement": "ID50, syncytium formation by IIIB-infected H9 cells with C8166 cells", "setting": "[3]", "result": 3, "unit": "µg/mL"},
      {"measurement": "percent inhibition of syncytium formation by IIIB-infected cells at 25 µg antibody", "setting": "[3]", "result": 85, "unit": "%"},
      {"measurement": "ELISA ratio, infected cell membranes to uninfected cell membranes (Run 1)", "setting": "[4]", "result": 5.76},
      {"measurement": "RIA Ratio cpm inf/cpm uninf", "setting": "[5]", "result": 9.81}
    ]}
  ]
}
